# Measured values taken from patent publication US20130344077A1 (VET THERAPEUTICS, published 2013).
# T1: human CD52 on human T-cell lymphoma HUT-78 cells (human, UniProt P31358 25-36)
# T1 construct: whole, on cells; also called CAMPATH-1 antigen; CD52 positive lymphoma cells
# T1 chain (looked up): GQNDTSQTSSPS
# Molecular target: T1, human CD52 on human T-cell lymphoma …
# Assay: FACS on HUT-78 cells, about 2 ug primary antibody, FITC goat anti-dog IgG secondary
# Protocol: The binding of the antibody variants of the present invention was assessed using a fluorescence-activated cell sorter (FACS). In the present example, the antibody variants were incubated with the CD52 positive cells and the amount of bound antibody was assessed following incubation with a fluorescent-labeled reporter reagent. The reporter was thereafter measured by FACS.
# Briefly, for each assay, one million cells of the human T-cell lymphoma HUT-78 cells were resuspended in FACS buffer (PBS+2% FBS). About 2 ug of the primary antibody were added to the cells and the samples were incubated at 4° C. for 1 hour. The primary antibody was provided as supernatants from transfected cells with recombinant antibody constructs or from purified antibody preparation. The rat anti-human CD52 mAb (Serotec) was added to the cells as a control. One ml of FACS buffer was added and cells were spin down for 3 min at 800×g in Eppendorf microcentrifuge. The cells were washed with 1 ml FACS buffer and spin down again. The secondary antibodies such as fluorescein-isothiocynate (FITC) conjugated goat anti-rat (Jackson ImmunoResearch), or the FITC-conjugated goat anti-dog IgG (H+L) (Bethyl Laboratories) were added in 100 μl of FACS buffer supplemented with 1% BSA to appropriate tubes and the tubes were incubated at 4° C. for 30 minutes. The wash steps were repeated. The cells were then resuspended in 500 μl FACS buffer and transferred into 12×75 mm polystyrene test tubes. The cells were analyzed by FACS with a FacScan cytometer using the CellQuest software (Becton-Dickenson). Several controls were utilized to determine the background fluorescence: (i) one tube of cells was incubated with the FITC-conjugated secondary antibody without the primary antibody, (ii) one tube of cells was incubated with PBS only, and (iii) one tube was incubated with the primary antibody without the FITC-conjugated secondary antibody.
row,Binder,Binding (%)
1,"VET114 VET224 antibody variant (anti-CD52, canine FR4 in both chains) (antibody, Constant domains are added as separate pieces because the printed entries are variable domains only) light: DIKMTQSPSFLSASVGDRVTLNCKASQNIDKYLNWYQQKLGESPKLLIYNTNNLQTGIPSRFSGSGSGTDFTLTISSLQPEDVATYFCLQHISRPRTFGGGTHLTVLGQPKASPSVTLFPPSSEELGANKATLVCLISDFYPSGVTVAWKADGSPITQGVETTKPSKQSNNKYAASSYLSLTPDKWKSHSSFSCLVTHEGSTVEKKVAPAECS heavy: EVKLLESGGGLVQPGGSMRLSCAGSGFTFTDFYMNWIRQPAGKAPEWLGFIRDKAKGYTTEYNPSVKGRFTISRDNTQNMLYLQMNTLRAEDTATYYCAREGHTAAPFDYWGQGTLVTVSSASTTAPSVFPLAPSCGSTSGSTVALACLVSGYFPEPVTVSWNSGSLTSGVHTFPSVLQSSGLYSLSSMVTVPSSRWPSETFTCNVAHPASKTKVDKPVPKRENGRVPRPPDCPKCPAPEMLGGPSVFIFPPKPKDTLLIARTPEVTCVVVDLDPEDPEVQISWFVDGKQMQTAKTQPREEQFNGTYRVVSVLPIGHQDWLKGKQFTCKVNNKALPSPIERTISKARGQAHQPSVYVLPPSREELSKNTVSLTCLIKDFFPPDIDVEWQSNGQQEPESKYRTTPPQLDEDGSYFLYSKLSVDKSRWQRGDTFICAVMHEALHNHYTQKSLSHSPGK",47.8%
2,"VET111 VET222 chimeric antibody (rat anti-human CD52 variable domains on canine constant domains) (antibody, Expressed in 293F cells and used as supernatant or protein A purified) light: DIKMTQSPSFLSASVGDRVTLNCKASQNIDKYLNWYQQKLGESPKLLIYNTNNLQTGIPSRFSGSGSGTDFTLTISSLQPEDVATYFCLQHISRPRTFGTGTKLELKGQPKASPSVTLFPPSSEELGANKATLVCLISDFYPSGVTVAWKADGSPITQGVETTKPSKQSNNKYAASSYLSLTPDKWKSHSSFSCLVTHEGSTVEKKVAPAECS heavy: EVKLLESGGGLVQPGGSMRLSCAGSGFTFTDFYMNWIRQPAGKAPEWLGFIRDKAKGYTTEYNPSVKGRFTISRDNTQNMLYLQMNTLRAEDTATYYCAREGHTAAPFDYWGQGVMVTVSSASTTAPSVFPLAPSCGSTSGSTVALACLVSGYFPEPVTVSWNSGSLTSGVHTFPSVLQSSGLYSLSSMVTVPSSRWPSETFTCNVAHPASKTKVDKPVPKRENGRVPRPPDCPKCPAPEMLGGPSVFIFPPKPKDTLLIARTPEVTCVVVDLDPEDPEVQISWFVDGKQMQTAKTQPREEQFNGTYRVVSVLPIGHQDWLKGKQFTCKVNNKALPSPIERTISKARGQAHQPSVYVLPPSREELSKNTVSLTCLIKDFFPPDIDVEWQSNGQQEPESKYRTTPPQLDEDGSYFLYSKLSVDKSRWQRGDTFICAVMHEALHNHYTQKSLSHSPGK",51.4%
3,"VET114 VET223 antibody variant (anti-CD52) (antibody, Constant domains are added as separate pieces because the printed entries are variable domains only) light: DIKMTQSPSFLSASVGDRVTLNCKASQNIDKYLNWYQQKLGESPKLLIYNTNNLQTGIPSRFSGSGSGTDFTLTISSLQPEDVATYFCLQHISRPRTFGGGTHLTVLGQPKASPSVTLFPPSSEELGANKATLVCLISDFYPSGVTVAWKADGSPITQGVETTKPSKQSNNKYAASSYLSLTPDKWKSHSSFSCLVTHEGSTVEKKVAPAECS heavy: EVQLVESGGDLVKPGGSLRLSCAGSGFTFTDFYMNWIRQPAGKAPEWLGFIRDKAKGYTTEYNPSVKGRFTISRDNTQNMLYLQMNTLRAEDTATYYCAREGHTAAPFDYWGQGTLVTVSSASTTAPSVFPLAPSCGSTSGSTVALACLVSGYFPEPVTVSWNSGSLTSGVHTFPSVLQSSGLYSLSSMVTVPSSRWPSETFTCNVAHPASKTKVDKPVPKRENGRVPRPPDCPKCPAPEMLGGPSVFIFPPKPKDTLLIARTPEVTCVVVDLDPEDPEVQISWFVDGKQMQTAKTQPREEQFNGTYRVVSVLPIGHQDWLKGKQFTCKVNNKALPSPIERTISKARGQAHQPSVYVLPPSREELSKNTVSLTCLIKDFFPPDIDVEWQSNGQQEPESKYRTTPPQLDEDGSYFLYSKLSVDKSRWQRGDTFICAVMHEALHNHYTQKSLSHSPGK",40.1%
4,"VET112 VET223 antibody variant (anti-CD52, canine FR1 and FR4 in both chains) (antibody, Constant domains are added as separate pieces because the printed entries are variable domains only) light: QSVLTQPASVSGSLGQRVTISCKASQNIDKYLNWYQQKLGESPKLLIYNTNNLQTGIPSRFSGSGSGTDFTLTISSLQPEDVATYFCLQHISRPRTFGGGTHLTVGQPKASPSVTLFPPSSEELGANKATLVCLISDFYPSGVTVAWKADGSPITQGVETTKPSKQSNNKYAASSYLSLTPDKWKSHSSFSCLVTHEGSTVEKKVAPAECS heavy: EVQLVESGGDLVKPGGSLRLSCAGSGFTFTDFYMNWIRQPAGKAPEWLGFIRDKAKGYTTEYNPSVKGRFTISRDNTQNMLYLQMNTLRAEDTATYYCAREGHTAAPFDYWGQGTLVTVSSASTTAPSVFPLAPSCGSTSGSTVALACLVSGYFPEPVTVSWNSGSLTSGVHTFPSVLQSSGLYSLSSMVTVPSSRWPSETFTCNVAHPASKTKVDKPVPKRENGRVPRPPDCPKCPAPEMLGGPSVFIFPPKPKDTLLIARTPEVTCVVVDLDPEDPEVQISWFVDGKQMQTAKTQPREEQFNGTYRVVSVLPIGHQDWLKGKQFTCKVNNKALPSPIERTISKARGQAHQPSVYVLPPSREELSKNTVSLTCLIKDFFPPDIDVEWQSNGQQEPESKYRTTPPQLDEDGSYFLYSKLSVDKSRWQRGDTFICAVMHEALHNHYTQKSLSHSPGK",24.4%
5,"VET112 VET224 antibody variant (anti-CD52) (antibody, Constant domains are added as separate pieces because the printed entries are variable domains only) light: QSVLTQPASVSGSLGQRVTISCKASQNIDKYLNWYQQKLGESPKLLIYNTNNLQTGIPSRFSGSGSGTDFTLTISSLQPEDVATYFCLQHISRPRTFGGGTHLTVGQPKASPSVTLFPPSSEELGANKATLVCLISDFYPSGVTVAWKADGSPITQGVETTKPSKQSNNKYAASSYLSLTPDKWKSHSSFSCLVTHEGSTVEKKVAPAECS heavy: EVKLLESGGGLVQPGGSMRLSCAGSGFTFTDFYMNWIRQPAGKAPEWLGFIRDKAKGYTTEYNPSVKGRFTISRDNTQNMLYLQMNTLRAEDTATYYCAREGHTAAPFDYWGQGTLVTVSSASTTAPSVFPLAPSCGSTSGSTVALACLVSGYFPEPVTVSWNSGSLTSGVHTFPSVLQSSGLYSLSSMVTVPSSRWPSETFTCNVAHPASKTKVDKPVPKRENGRVPRPPDCPKCPAPEMLGGPSVFIFPPKPKDTLLIARTPEVTCVVVDLDPEDPEVQISWFVDGKQMQTAKTQPREEQFNGTYRVVSVLPIGHQDWLKGKQFTCKVNNKALPSPIERTISKARGQAHQPSVYVLPPSREELSKNTVSLTCLIKDFFPPDIDVEWQSNGQQEPESKYRTTPPQLDEDGSYFLYSKLSVDKSRWQRGDTFICAVMHEALHNHYTQKSLSHSPGK",30.6%

# Molecular target: target antigen of mab 231 on canine lymphoma cells (canine)
# Assay: FACS on canine lymphoma cells positive for the mab 231 antigen, FITC anti-dog IgG secondary
row,Binder,Binding (%)
1,"VET106 VET217 anti-canine lymphoma antibody variant (mab 231 variable domains, canine lambda constant) (antibody) light: DIQMNQSPSSLSASLGDTITITCHASQNINVWLSWYQQKPGNIPKLLIYKASNLHTGVPSRFSGSGSGTGFTLTISSLQPEDIATYYCQQGQSYPLTFGGGTKLEIKGQPKASPSVTLFPPSSEELGANKATLVCLISDFYPSGVTVAWKADGSPITQGVETTKPSKQSNNKYAASSYLSLTPDKWKSHSSFSCLVTHEGSTVEKKVAPAECS heavy: EVKLVESGGGLVQPGGSLKLSCATSGFTFSDYYMYWVRQTPEKRLEWVAYISNGGGSTYYPDTVKGRFTISRDNAKNTLYLQMSRLKSEDTAMYYCARHGGYYAMDYWGQGTLVTVSSASTTAPSVFPLAPSCGSTSGSTVALACLVSGYFPEPVTVSWNSGSLTSGVHTFPSVLQSSGLYSLSSMVTVPSSRWPSETFTCNVAHPASKTKVDKPVPKRENGRVPRPPDCPKCPAPEMLGGPSVFIFPPKPKDTLLIARTPEVTCVVVDLDPEDPEVQISWFVDGKQMQTAKTQPREEQFNGTYRVVSVLPIGHQDWLKGKQFTCKVNNKALPSPIERTISKARGQAHQPSVYVLPPSREELSKNTVSLTCLIKDFFPPDIDVEWQSNGQQEPESKYRTTPPQLDEDGSYFLYSKLSVDKSRWQRGDTFICAVMHEALHNHYTQKSLSHSPGK",30.3%
2,"VET107 VET217 anti-canine lymphoma antibody variant (mab 231 variable domains, canine kappa constant) (antibody) light: DIQMNQSPSSLSASLGDTITITCHASQNINVWLSWYQQKPGNIPKLLIYKASNLHTGVPSRFSGSGSGTGFTLTISSLQPEDIATYYCQQGQSYPLTFGGGTKLEIKNDAQPAVYLFQPSPDQLHTGSASVVCLLNSFYPKDINVKWKVDGVIQDTGIQESVTEQDKDSTYSLSSTLTMSSTEYLSHELYSCEITHKSLPSTLIKSFQRSECQRVD heavy: EVKLVESGGGLVQPGGSLKLSCATSGFTFSDYYMYWVRQTPEKRLEWVAYISNGGGSTYYPDTVKGRFTISRDNAKNTLYLQMSRLKSEDTAMYYCARHGGYYAMDYWGQGTLVTVSSASTTAPSVFPLAPSCGSTSGSTVALACLVSGYFPEPVTVSWNSGSLTSGVHTFPSVLQSSGLYSLSSMVTVPSSRWPSETFTCNVAHPASKTKVDKPVPKRENGRVPRPPDCPKCPAPEMLGGPSVFIFPPKPKDTLLIARTPEVTCVVVDLDPEDPEVQISWFVDGKQMQTAKTQPREEQFNGTYRVVSVLPIGHQDWLKGKQFTCKVNNKALPSPIERTISKARGQAHQPSVYVLPPSREELSKNTVSLTCLIKDFFPPDIDVEWQSNGQQEPESKYRTTPPQLDEDGSYFLYSKLSVDKSRWQRGDTFICAVMHEALHNHYTQKSLSHSPGK",20.8%
